Results as given in patent publication US20210063414A1, “METHODS FOR PREVENTING AND/OR TREATING BONE LOSS CONDITIONS BY MODULATING IRISIN” (Dana-Farber Cancer Institute, Inc., priority 2018, published 2021).
“Also recorded” adds a separate entry of the source.

Assays:
integrin αV/β5 = experiment: Protein-protein binding assay: irisin with his-tag integrins, Ni-NTA co-precipitation and immunoblot; parameters: species or system murine and human; conditions: 100 nM irisin, 5 nM his-tag integrin
Description: 100 nM irisin was incubated with 5 nM indicated his-tag integrins followed by immunoprecipitation using Ni-NTA agaroses. Precipitated integrins and co-precipitated irisin were analyzed by immunoblot analysis. […] HEK293T cells were seeded and incubated until 50% cell density. The cells were transfected with 0.1 μg plasmids of indicated integrins. After 48 hours, the cells were incubated with Freestyle293 medium for 3 hours and were treated with indicated concentration of irisin for 5 minutes. Cells were lysed to detect the indicated protein level using immunoblot analysis. […] Sclerostin mRNA level was analyzed by qRT-PCR. […]
100 nM irisin was incubated with 5 nM indicated his-tag integrins followed by immunoprecipitation using Ni-NTA agaroses. Precipitated integrins and co-precipitated irisin were analyzed by immunoblot analysis. […] Cells were treated and analyzed as FIG. 14B except using plasmids encoding integrin α5/β1 or integrin α11/β1 (FIG. 15C) integrin αV/β1(FIG. 15D).
100 nM flag-tagged mammalian irisin was incubated with 5 nM of the indicated his-tag integrins in a final volume of 600 μl in 1.5 ml Protein LoBind Tubes (Eppendorf®, 022431081) for 5 minutes at room temperature under rotation. […] Precipitated integrins were detected by immunoblot analysis against his tag. Co-precipitated irisin was detected by immunoblot analysis against flag-tag.

[1] = tested on: sclerostin mRNA in MLO-Y4 cells; experiment: Sclerostin mRNA in MLO-Y4 cells, qRT-PCR; format: cell-based, mouse; conditions: MLO-Y4, irisin 16 hours
Description: Cells were stained with Hoechst 33342 and Eth-D1, and analyzed to determine the percentage of cell death. *: p<0.05, ***: p<0.001 vs 0.3 mM H2O2 treated condition. […] MLO-Y4 cells were seeded and incubated until 60% cell density. The cells were incubated with Freestyle293 medium for 4 hours and were treated with indicated concentrations of irisin for 16 hours. Sclerostin mRNA level was analyzed by qRT-PCR. Cyclophilin was used as a control house-keeping gene.
MLO-Y4 cells were incubated in serum free medium for 3 hours followed by treatment of indicated concentrations of irisin for indicated time (FIG. 6A), or followed by treatment of 0 or 10 nM irisin in the presence of indicated integrin inhibitors or their control peptide for 16 hours (FIG. 6B). Sclerostin mRNA level was analyzed by qPCR.
Certain materials and methods were used to generate the results described herein. […] Cells were stained with Hoechst 33342 (ThermoFisher Scientific, catalog number H3570) and Eth-D1 (ThermoFisher Scientific, catalog number E1169) and analyzed to determine the percentage of cell death using ImageJ. […] Co-precipitated irisin was analyzed by immunoblot analysis against flag tag (Sigma Aldrich, catalog number A8592). […] Sclerostin mRNA level was analyzed by qPCR (FIG. 7A). […]

B1: irisin: secreted cleaved form of FNDC5; recombinant human/mouse irisin with C-terminal his tag produced in HEK293 cells (protein)
chain: DSPSAPVNVTVRHLKANSAVVSWDVLEDEVVIGFAISQQKKDVRMLRFIQEVNTTTRSCALWDLEEDTEYIVHVQAISIQGQSPASEPVLFKTPREAEKMASKNKDEVTMKE
modifications: left off: small tags and cut ends
notes: secreted cleaved form of FNDC5; recombinant human/mouse irisin with C-terminal his tag produced in HEK293 cells
Question: With B1 as the molecule, how does the “extent of binding of irisin to integrin complex” value (integrin αV/β5) read?
Answer: Its value is “by far the highest extent of binding; also recorded: highest apparent affinity”.

Question: What about the “sclerostin mRNA level” value [1] of the same molecule?
Answer: The value was “increased; also recorded: raised the mRNA level of sclerostin in the osteocyte cultures in a dose-dependent manner”.
